Source: patent US20240003880A1 (TRUSTEES OF COLUMBIA UNIVERSITY IN THE CITY OF NEW YORK, published 2024)

Assays:
[1] = target: T1, SARS-CoV-2 nucleocapsid phosphoprotein (SARS-CoV-2, UniProt P0DTC9 1-419); assay: Western blot on NP denatured with DTT and heat (FIG. 4)
[2] = target: T1, SARS-CoV-2 nucleocapsid phosphoprotein; assay: ELISA (FIG. 3)

B1: antibody 9-9 (antibody, V domains shown)
VH: EVQLVESGGGLVQPGGSLRLSCAASGFIFSNYWMSWVRQAPGKGLEWVANTKQDDSEKYYVDAVKGRFTISRDNAKNSLYLQMNSLRADDTAVYYCAREVRIAVTGTSRDEDYSYNGMDVWGQGTTVTVSS
VL: SYELTQPPSVSVSPGQTARITCSADALAKQYAYWYQQKPGQAPVLVIFKDSERPSGIPERFSGSSSGTTVTLTISRVQAEDEADYYCQSADSSGYYWAFGGGTKLTVL
binding result [1]: binds

B2: antibody 9-29 (antibody, V domains shown)
VH: EVQLVQSGAEVKKSGESLKISCKGSGYSFTNYWIGWVRQMPGKGLEWMGIIYPGDSDTRHSPSFQGQVTISADKSLRTAYLQWSSLKASDTAIYYCARGADGYSSYFDYWGQGTLVTVSS
VL: NFMLTQPHSVSESPGKTVIISCTRSSGSIASDYVQWYQQRPGSVPTTVIYEDNERPSGVPDRFSGSIDSSSNSASLTISGLKTEDEADYYCQSYDSSVQVFGGGTKLTVL
binding result [1]: binds

B3: antibody 9-8 (antibody, V domains shown)
VH: EVQLVESGGGLVQPGGSLRLSCAASGFTFSTYWMSWVRQAPGKGLEWVANIKQDGSEKYYVDSVKGRFTISRDNAKNSLYLQMNSLRAEDTAVYYCARYSLDYYDTSGSFDYWGQGTLVAVSS
VL: SYELTQPPSVSVSPGQTARITCSGDALPKKYAYWYQQKSGQAPVLVIYEDSKRPSGIPERFSGSSSGTMATLTISGAQVEDEADYYCYSTDSSGNHRGVFGGGTQLTVL
binding result [2]: binds
